This is an account of results in the RNAGym collection of RNA variant scans (doi:10.7554/elife.80360).

B1: Hammerhead Ribozyme (parent)
chain: ACCGGAUGUGCUUUCCGGUCUGAUGAGUCCGUGAGGACGAAACAG

Variants of B1 are the subject of the series. Kind of series: self-cleavage, relative activity (ratio to wild type); higher = more cleavage; co-transcriptional.
As to AGCGGAUGUGCUUUCCGGUCUCAUGAGUCCGUGAGGACGAAACAG [C2G G22C], the self-cleavage is 0.296.

In the case of AGCGGAUGUGCUUUCCGGUCUGAUGAGUCCGUCAGGACGAAACAG [C2G G33C], the self-cleavage is 0.443.

Turning to ACCAGAUGUGCUGUCCGGUCUGAUGAGUCCGUGAGGACGAAACAG [G4A U13G], the self-cleavage is 0.616.

Turning to ACCGGAUGUGCUAUCCGGUCUGAUGAGUCCGUGGGGACGAAACAG [U13A A34G], the self-cleavage amounted to 1.04.

With ACCGGAGGUGCUUUCCGGUCUGAUGAGUCCGGGAGGACGAAACAG [U7G U32G], the self-cleavage came to 0.796.

For the variant ACCGGAUGUGCUUUCCGGUCUGUUGAGUCCGUGAGGACGAAAAAG [A23U C43A], the self-cleavage worked out at 0.377.

Turning to GCCGGAUGUGCUUUCCUGUCUGAUGAGUCCGUGAGGACGAAACAG [A1G G17U], the self-cleavage turned out to be 1.02.

ACAGGAUGUGCUUUCCGGUCUGAUGAGUUCGUGAGGACGAAACAG [C3A C29U]: the self-cleavage came out at 0.534.

Consider ACCGAAUGUGCUUUCCGGUCUGAUGCGUCCGUGAGGACGAAACAG [G5A A26C], for which the self-cleavage is 0.464.

Consider ACCGGAUGUGCUUUCGGGUCUGAUGAGUCCGUGACGACGAAACAG [C16G G35C], for which the self-cleavage amounted to 0.44.

On to ACCGGAUGUGCUUUCCGGUCUGGUGAGUUCGUGAGGACGAAACAG [A23G C29U], for which the self-cleavage was 0.356.

On to AUCGGAUGUGCUUUCCGGUCUGAUGAGUCCGUGAGGUCGAAACAG [C2U A37U], for which the self-cleavage is 0.849.

With ACCGUAUGUGCUUUCCGGUCUGAUGAGUCCGUGAGGUCGAAACAG [G5U A37U], the self-cleavage was 0.417.

As to ACCGGAUGUGCUUUACGGUCUGAUGAGUCCGUGUGGACGAAACAG [C15A A34U], the self-cleavage stood at 0.879.

Turning to ACCGGAUGUGCUUUCCGGUCUGUUGAGUCCGUGAGGACGAACCAG [A23U A42C], the self-cleavage was determined as 0.331.

With ACCGGAUGUGCUUUCCGGACUCAUGAGUCCGUGAGGACGAAACAG [U19A G22C], the self-cleavage came to 0.356.

Turning to ACCGGAUGUGCCUUCCGGUCUGAUGCGUCCGUGAGGACGAAACAG [U12C A26C], the self-cleavage is 0.505.

Consider ACCAGAUGUGCUUUCCGGUCUCAUGAGUCCGUGAGGACGAAACAG [G4A G22C], for which the self-cleavage came out at 0.354.

For ACCGGAUGUGAGUUCCGGUCUGAUGAGUCCGUGAGGACGAAACAG [C11A U12G], the self-cleavage came out at 1.61.

As for ACCGGAUGUCCUUUCCGGUCUGAUGUGUCCGUGAGGACGAAACAG [G10C A26U], the self-cleavage worked out at 0.851.

As for ACCGGAUAUGCUUUCCGGUCUGAUGAGUCCGUGAGGACGAAGCAG [G8A A42G], the self-cleavage was 0.306.

On to ACCGGAUGUGCUUUCCGGCCUGAUGAGUCCGUGAGAACGAAACAG [U19C G36A], for which the self-cleavage came to 0.475.

Take AACUGAUGUGCUUUCCGGUCUGAUGAGUCCGUGAGGACGAAACAG [C2A G4U]: the self-cleavage was determined as 1.77.

For the variant AGCGGAUGUGCUUUCCGGUCUGAUGAGUCCGAGAGGACGAAACAG [C2G U32A], the self-cleavage was determined as 0.418.

For the variant ACCGGAUGUGCUAUCCGGUCUGAUGAGUCCGUGAGGACGAAACAG [U13A], the self-cleavage worked out at 1.31.

With ACCGGAUGUGCGUUCCGGUCUGAUGAGUCCGUGAGGACGAUACAG [U12G A41U], the self-cleavage came to 0.298.

As to ACCGGAUGUCCUUUCCGGUCUGAUGAGUCCGUGAGGAAGAAACAG [G10C C38A], the self-cleavage was found to be 0.79.

Regarding ACCGAAUGUGCUUUCCGGUCUGAGGAGUCCGUGAGGACGAAACAG [G5A U24G], the self-cleavage was 0.965.

Take ACCGGAUGUGCUUCCCGGUCUGAUGAGUCCGUGGGGACGAAACAG [U14C A34G]: the self-cleavage stood at 0.682.

As to ACCGGAUGUGCGUUCCGGUGUGAUGAGUCCGUGAGGACGAAACAG [U12G C20G], the self-cleavage worked out at 0.32.

Consider ACCGGAUGUGCUUUCGGGUCUGAUGAGUCCGUGAGGAGGAAACAG [C16G C38G], for which the self-cleavage turned out to be 0.358.

Regarding ACCGGAUGUGCUUUCCGCUCUGAUGAGUCCCUGAGGACGAAACAG [G18C G31C], the self-cleavage turned out to be 0.548.

As for ACCGGAUGGGCUUUCCGGUCUGAUGCGUCCGUGAGGACGAAACAG [U9G A26C], the self-cleavage is 0.32.

ACCGGAUGUGCUUUCCGGUCUGCUGAGUCCGUGAGGAUGAAACAG [A23C C38U]: the self-cleavage turned out to be 0.316.

Take ACCGGAUGUGCUUUCCGGUCUGAAGAGUCCGUGUGGACGAAACAG [U24A A34U]: the self-cleavage came out at 0.849.

ACCGGAUGUGCUUUCCGGUCUUAUGAGUCCCUGAGGACGAAACAG [G22U G31C]: the self-cleavage was found to be 0.303.

ACCGGAUGUGCUUCCCGGUCUGAUGAGUCCGUGAGGACGAAACGG [U14C A44G]: the self-cleavage came out at 1.24.

In the case of ACCGGAUGUGCUUUCCGGUCUGAUGUGUCCGUGAGCACGAAACAG [A26U G36C], the self-cleavage was 0.265.

As to ACCGGAUGUGCUUUCCGGUCAGAUGAGUCCGGGAGGACGAAACAG [U21A U32G], the self-cleavage came to 0.515.

Take ACCGGAUGUGCUUUCCGGUCUGGUGAGGCCGUGAGGACGAAACAG [A23G U28G]: the self-cleavage worked out at 0.386.

Regarding CCGGGAUGUGCUUUCCGGUCUGAUGAGUCCGUGAGGACGAAACAG [A1C C3G], the self-cleavage turned out to be 0.549.

In the case of ACCGGAUGUGAUUUCCGGUCUGAUGAGUCCGUGAGGACGAGACAG [C11A A41G], the self-cleavage was determined as 0.364.

With ACCUGAUGUGCUUUCCGGUCUGAUGAGUCCGUGAGGACUAAACAG [G4U G39U], the self-cleavage was 0.29.

On to ACCGGAUGUGGUUUCCGGUCUGAUGAGUCCGUGAGGCCGAAACAG [C11G A37C], for which the self-cleavage stood at 1.11.

With ACCGGAUGUGGUUUCCGGUCUGAUGAGUCCGUGAAGACGAAACAG [C11G G35A], the self-cleavage turned out to be 1.02.

On to ACCUGAUGUGCUUUCCGGUCUGAUGAGUCCGUGAGGACGAAACAU [G4U G45U], for which the self-cleavage was determined as 0.446.

Take ACCGGCUGUGCUUUCCGGUCUGCUGAGUCCGUGAGGACGAAACAG [A6C A23C]: the self-cleavage stood at 0.333.

Regarding ACCGGAUGUGCUUGCCGGUCUGAUGAGUCCGUGAAGACGAAACAG [U14G G35A], the self-cleavage came to 0.725.

For ACCGGAUGUUCUUUCCGGUCUGAUGAGUCCGUGAGGCCGAAACAG [G10U A37C], the self-cleavage amounted to 0.934.

Take ACCGUAUGUGCUUUCCGGUCUGAGGAGUCCGUGAGGACGAAACAG [G5U U24G]: the self-cleavage is 0.636.

Regarding ACCGGAUGUGCUUUCCGGUCCGAUGAGUCCGUGAGGACGAAACUG [U21C A44U], the self-cleavage was determined as 0.571.

With ACCGGAUGUACUUUCCGGUCUGAUGGGUCCGUGAGGACGAAACAG [G10A A26G], the self-cleavage turned out to be 0.353.

On to ACCGGAUGUGCUUUCCGGUCGGAUGAGACCGUGAGGACGAAACAG [U21G U28A], for which the self-cleavage was determined as 0.4.

Turning to AGCGGAUGUGCUUUCCGGUCUGGUGAGUCCGUGAGGACGAAACAG [C2G A23G], the self-cleavage was found to be 0.318.

Consider ACCGGAUGUGCUUUGCGGUCUGAUGAGUCCGUGAGGACUAAACAG [C15G G39U], for which the self-cleavage is 0.301.

Take ACCGGAUGUGCUUUCCGGUCUGAUGAGUCAGUGAGGACGACACAG [C30A A41C]: the self-cleavage turned out to be 0.423.

For ACCGGAUGUCCUUUCCGGUCUGAUGAUUCCGUGAGGACGAAACAG [G10C G27U], the self-cleavage was 0.555.
